Laboratory results from US20230125550A1 (ARCELLX, published 2023).

T1: AFP p26 (human, UniProt P02771 381-609)
T1 construct: The construct used is not described
T1 sequence: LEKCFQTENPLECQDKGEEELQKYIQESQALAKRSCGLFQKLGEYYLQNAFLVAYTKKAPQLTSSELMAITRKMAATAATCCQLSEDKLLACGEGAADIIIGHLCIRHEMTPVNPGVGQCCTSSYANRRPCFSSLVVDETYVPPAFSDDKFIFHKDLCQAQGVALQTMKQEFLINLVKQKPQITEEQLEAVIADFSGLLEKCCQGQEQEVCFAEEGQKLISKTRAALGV


Each binder was assayed against T1, AFP p26 (assay: phage ELISA, A450 target/A450 IgG1-Fc).
Method in brief: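 Phage rescued with VCSM13 helper phage from phagemid colonies picked from panning output were tested on plates coated with goat anti-human IgG1-Fc antibody that carried either recombinant human target or IgG1-Fc. Bound phage were detected with HRP-conjugated anti-M13 antibody at 450 nm. The ELISA ratio is target absorbance over IgG1-Fc absorbance, averaged across all screened wells holding the clone.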

ELISA_avg	Binder
19.8 ratio	SEQ ID NO 838 (designed binder) MGSWMYFKSHLAWIKWELEALGGSEAELAFFEDNIAQFEYWLQLYKGKGNPEVEALRKEAAAIRDELQAYRHN
18.1 ratio	SEQ ID NO 827 (designed binder) MGSWEHFKVELAGIKAYLEALGGSEAELALFEWAIADFESILQDYKGKGNPEVEALRKEAAAIRDELQAYRHN
15.9 ratio	SEQ ID NO 828 (designed binder) MGSWIYFKDELAGIKKYLEALGGSEAELAMFEVAIADFEAILQKYKGKGNPEVEALRKEAAAIRDELQAYRHN
31.9 ratio	SEQ ID NO 805 (designed binder) MGSWYEFYDRLDAIEDRLFALGGSEAELAAFEKEIAAFESELQAYKGKGNPEVESLRDQAAYIRTWLQAYRHN
25.4 ratio	SEQ ID NO 810 (designed binder) MGSWSEFTDRLFAIEDRLLALGGSEAELAAFEKEIAAFESELQAYKGKGNPEVEDLRMHAASIRLWLQAYRHN
20 ratio	SEQ ID NO 809 (designed binder) MGSWVEFYHRLDAIFDRLDALGGSEAELAAFEKEIAAFESELQAYKGKGNPEVEELRANAAGIRSWLQAYRHN
28.7 ratio	SEQ ID NO 808 (designed binder) MGSWVEFYERLNAIEYRLEALGGSEAELAAFEKEIAAFESELQAYKGKGNPEVESLREHAAYIRQWLQAYRHN
28.5 ratio	SEQ ID NO 807 (designed binder) MGSWVEFYHRLEAIEQRLMALGGSEAELAAFEKEIAAFESELQAYKGKGNPEVESLREQAAAIRSWLQAYRHN
26.9 ratio	SEQ ID NO 806 (designed binder) MGSWHEFWVRLEAIESRLFALGGSEAELAAFEKEIAAFESELQAYKGKGNPEVESLRVQAAHIRSWLQAYRHN
20.5 ratio	SEQ ID NO 844 (designed binder) MGSWVRFKTELAYIKESLEALGGSEAELAMFESEIAIFEHSLQTYKGKGNPEVEALRKEAAAIRDELQAYRHN
30.1 ratio	SEQ ID NO 841 (designed binder) MGSWYFFKSRLAYIKVYLEALGGSEAELAGFEWEIAHFEEWLQRYKGKGNPEVEALRKEAAAIRDELQAYRHN
29.6 ratio	SEQ ID NO 842 (designed binder) MGSWYIFKSELAWIKWYLEALGGSEAELANFEVEIATFETWLQGYKGKGNPEVEALRKEAAAIRDELQAYRHN
8.54 ratio	SEQ ID NO 816 (designed binder) MGSWGEFTVRLYAIDRRLDALGGSEAELAAFEKEIAAFESELQAYKGKGNPEVEELRRFAAIIRAFLQAYRHN
20.8 ratio	SEQ ID NO 837 (designed binder) MGSWVYFKAHLAFIKWELEALGGSEAELANFESTIAEFEKYLQVYKGKGNPEVEALRKEAAAIRDELQAYRHN
29.5 ratio	SEQ ID NO 829 (designed binder) MGSWVLFKQELAWIKWLLEALGGSEAELAAFEEQIARFEHDLQKYKGKGNPEVEALRKEAAAIRDELQAYRHN
25.8 ratio	SEQ ID NO 831 (designed binder) MGSWFLFKSELAWIKWRLEALGGSEAELAYFEYQIAEFEFWLQSYKGKGNPEVEALRKEAAAIRDELQAYRHN
33.3 ratio	SEQ ID NO 833 (designed binder) MGSWLLFKSDLAWIKWRLEALGGSEAELAEFEESIAMFEHWLQEYKGKGNPEVEALRKEAAAIRDELQAYRHN
25.7 ratio	SEQ ID NO 832 (designed binder) MGSWLLFKSELAWIKWYLEALGGSEAELAEFEWNIAEFEKNLQKYKGKGNPEVEALRKEAAAIRDELQAYRHN
22.5 ratio	SEQ ID NO 830 (designed binder) MGSWVLFKQELAWIKWYLEALGGSEAELAAFEWEIAAFEQRLQIYKGKGNPEVEALRKEAAAIRDELQAYRHN
21.2 ratio	SEQ ID NO 834 (designed binder) MGSWLYFKSDLAWIKWRLEALGGSEAELADFEEAIAEFEQALQIYKGKGNPEVEALRKEAAAIRDELQAYRHN
15.2 ratio	SEQ ID NO 812 (designed binder) MGSWFEFSNRLYAIWHRLTALGGSEAELAAFEKEIAAFESELQAYKGKGNPEVESLRTQAAFIRILLQAYRHN

ELISA_avg	Binder
10.9 ratio	SEQ ID NO 814 (designed binder) MGSWFEFEDRLFAIWTRLEALGGSEAELAAFEKEIAAFESELQAYKGKGNPEVESLRQSAASIRWLLQAYRHN
19 ratio	SEQ ID NO 813 (designed binder) MGSWFEFSDRLYAIWERLDALGGSEAELAAFEKEIAAFESELQAYKGKGNPEVESLRFQAAFIRYQLQAYRHN
8.21 ratio	SEQ ID NO 815 (designed binder) MGSWHEFSERLFAIWTRLEALGGSEAELAAFEKEIAAFESELQAYKGKGNPEVEALRQSAAFIRVMLQAYRHN
13.8 ratio	SEQ ID NO 825 (designed binder) MGSWVLFKDYLADIKHYLEALGGSEAELANFEHLIANFEGDLQTYKGKGNPEVEALRKEAAAIRDELQAYRHN
8 ratio	SEQ ID NO 819 (designed binder) MGSWHHFKYFLADIKSILEALGGSEAELAIFEVQIAYFEDLLQSYKGKGNPEVEALRKEAAAIRDELQAYRHN
19.6 ratio	SEQ ID NO 826 (designed binder) MGSWSLFKHRLANIKVYLEALGGSEAELADFETFIAYFEKDLQEYKGKGNPEVEALRKEAAAIRDELQAYRHN
25.3 ratio	SEQ ID NO 790 (designed binder) MGSWAEFSDRLNAIDQRLWALGGSEAELAAFEKEIAAFESELQAYKGKGNPEVEILREHAAEIRKFLQAYRHN
33.4 ratio	SEQ ID NO 791 (designed binder) MGSWMEFNHRLQAIDGRLWALGGSEAELAAFEKEIAAFESELQAYKGKGNPEVEMLREHAAAIRAFLQAYRHN
19.2 ratio	SEQ ID NO 824 (designed binder) MGSWENFKDTLAWIKEYLEALGGSEAELAGFEHRIAIFEHYLQYYKGKGNPEVEALRKEAAAIRDELQAYRHN
31.5 ratio	SEQ ID NO 822 (designed binder) MGSWADFKWTLAYIKHRLEALGGSEAELAFFEMEIAYFEQSLQNYKGKGNPEVEALRKEAAAIRDELQAYRHN
20.1 ratio	SEQ ID NO 817 (designed binder) MGSWYEFDHRLMAISFRLVALGGSEAELAAFEKEIAAFESELQAYKGKGNPEVETLRRRAANIRHLLQAYRHN
11.4 ratio	SEQ ID NO 823 (designed binder) MGSWAYFKGQLAYIKSGLEALGGSEAELAYFELRIAYFEHWLQNYKGKGNPEVEALRKEAAAIRDELQAYRHN
13.7 ratio	SEQ ID NO 821 (designed binder) MGSWFYFKYELAWIKHWLEALGGSEAELASFETHIAFFEHQLQYYKGKGNPEVEALRKEAAAIRDELQAYRHN
23.4 ratio	SEQ ID NO 835 (designed binder) MGSWKLFKYELAWIKWRLEALGGSEAELADFEASIAQFEKYLQTYKGKGNPEVEALRKEAAAIRDELQAYRHN
31.1 ratio	SEQ ID NO 836 (designed binder) MGSWYLFKNELAWIKWRLEALGGSEAELADFEMVIAMFEDHLQEYKGKGNPEVEALRKEAAAIRDELQAYRHN
19.4 ratio	SEQ ID NO 843 (designed binder) MGSWYIFKQELASIKLSLEALGGSEAELAHFEAEIAWFEWWLQWYKGKGNPEVEALRKEAAAIRDELQAYRHN
12.1 ratio	SEQ ID NO 839 (designed binder) MGSWTLFKWDLAFIKWQLEALGGSEAELAWFEYEIAAFEDSLQNYKGKGNPEVEALRKEAAAIRDELQAYRHN
23.3 ratio	SEQ ID NO 840 (designed binder) MGSWILFKEDLAFIKWQLEALGGSEAELAWFETTIANFESDLQKYKGKGNPEVEALRKEAAAIRDELQAYRHN
22.9 ratio	SEQ ID NO 811 (designed binder) MGSWHEFYDRLYAIWDRLDALGGSEAELAAFEKEIAAFESELQAYKGKGNPEVEGLRNAAAVIRIFLQAYRHN
20.2 ratio	SEQ ID NO 818 (designed binder) MGSWSIFKYHLADIKLLLEALGGSEAELAYFEFLIADFEFTLQDYKGKGNPEVEALRKEAAAIRDELQAYRHN
13.3 ratio	SEQ ID NO 820 (designed binder) MGSWLYFKYNLAVIKHWLEALGGSEAELAIFEMSIADFEYELQWYKGKGNPEVEALRKEAAAIRDELQAYRHN
